These results are taken from the supplement of paper PMC11780869.

The data set deals with Bacillus subtilis. In words: cleaved RNA product abundance (RNA/gDNA barcode ratio) relative to median wild-type variant (ratio to wild type); higher = more accumulation of the downstream cleavage product. The settings on record: experiment (reporter, strain, medium): exp 8a: truncated aprE reporter, strain BJT201 with 2% xylose (RNase J1 expressed); cleavage site: glnRA (positions -5 to +31 mutated). A digest of the protocol:
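Reporter mRNAs based on truncated aprE or tetM carried barcoded, mutagenized RNase Y cleavage-site windows built from oligos with a 9% error rate and were integrated into the B. subtilis chromosome. Cultures grew in LB at 37°C from OD600 0.0003 to 0.3. Cleaved RNA was gel-selected, reverse transcribed and barcode-sequenced together with genomic DNA barcodes, and UMIs were collapsed. Cleaved product abundance is the per-construct ratio of RNA to gDNA barcodes, scaled to the median of constructs carrying the unmutated site.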
“CGACATGTCCCGCTTCTTTCATTAATCCGTTAGAAACTGATTTGCTATATACATTTACCTTTTAAGAGGAGGAAT”: the “cleaved RNA product abundance” value is 0.194.

Regarding “CGACATGTCCCGCTTCTTTCATTAATCCGTTAGAAACTGCTTTGCTATATACATTTACCTTTTAAGAGGAGGAAT”, the “cleaved RNA product abundance” value worked out at 0.146.

In the case of “CGACATGTCCCGCTTCTTTCATTAATCCGTTAGAAACTGTATTGCTATATACATTTACCTTTTAAGAGGAGGAAT”, the “cleaved RNA product abundance” value was 0.321.

As for “CGACATGTCCCGCTTCTTTCATTAATCCGTTAGAAACTGTTGTGCTATATACATTTACCTTTTAAGAGGAGGAAT”, the “cleaved RNA product abundance” value turned out to be 0.361.

Take “CGACATGTCCCGCTTCTTTCATTAATCCGTTAGAAACTGTTTAGCTATATACATTTACCTTTTAAGAGGAGGAAT”: the “cleaved RNA product abundance” value worked out at 0.295.

On to “CGACATGTCCCGCTTCTTTCATTAATCCGTTAGAAACTGTTTCGCTATATACATTTACCTTTTAAGAGGAGGAAT”, for which the “cleaved RNA product abundance” value is 0.12.

As for “CGACATGTCCCGCTTCTTTCATTAATCCGTTAGAAACTGTTTTACTATATACATTTACCTTTTAAGAGGAGGAAT”, the “cleaved RNA product abundance” value turned out to be 0.422.

Regarding “CGACATGTCCCGCTTCTTTCATTAATCCGTTAGAAACTGTTTTCCTATATACATTTACCTTTTAAGAGGAGGAAT”, the “cleaved RNA product abundance” value stood at 0.317.

In the case of “CGACATGTCCCGCTTCTTTCATTAATCCGTTAGAAACTGTTTTGATATATACATTTACCTTTTAAGAGGAGGAAT”, the “cleaved RNA product abundance” value turned out to be 0.221.

As for “CGACATGTCCCGCTTCTTTCATTAATCCGTTAGAAACTGTTTTGCTAAATACATTTACCTTTTAAGAGGAGGAAT”, the “cleaved RNA product abundance” value is 0.241.

As for “CGACATGTCCCGCTTCTTTCATTAATCCGTTAGAAACTGTTTTGCTAGATACATTTACCTTTTAAGAGGAGGAAT”, the “cleaved RNA product abundance” value was found to be 0.255.

As for “CGACATGTCCCGCTTCTTTCATTAATCCGTTAGAAACTGTTTTGCTATAAACATTTACCTTTTAAGAGGAGGAAT”, the “cleaved RNA product abundance” value stood at 0.203.

On to “CGACATGTCCCGCTTCTTTCATTAATCCGTTAGAAACTGTTTTGCTATACACATTTACCTTTTAAGAGGAGGAAT”, for which the “cleaved RNA product abundance” value was 0.253.

Consider “CGACATGTCCCGCTTCTTTCATTAATCCGTTAGAAACTGTTTTGCTATATAAATTTACCTTTTAAGAGGAGGAAT”, for which the “cleaved RNA product abundance” value came to 0.256.

For the sequence “CGACATGTCCCGCTTCTTTCATTAATCCGTTAGAAACTGTTTTGCTATATACACTTACCTTTTAAGAGGAGGAAT”, the “cleaved RNA product abundance” value is 0.157.

For the sequence “CGACATGTCCCGCTTCTTTCATTAATCCGTTAGAAACTGTTTTGCTATATACAGTTACCTTTTAAGAGGAGGAAT”, the “cleaved RNA product abundance” value came to 0.361.

For “CGACATGTCCCGCTTCTTTCATTAATCCGTTAGAAACTGTTTTGCTATATACATATACCTTTTAAGAGGAGGAAT”, the “cleaved RNA product abundance” value was determined as 0.244.

Turning to “CGACATGTCCCGCTTCTTTCATTAATCCGTTAGAAACTGTTTTGCTATATACATCTACCTTTTAAGAGGAGGAAT”, the “cleaved RNA product abundance” value worked out at 0.228.

“CGACATGTCCCGCTTCTTTCATTAATCCGTTAGAAACTGTTTTGCTATATACATTAACCTTTTAAGAGGAGGAAT”: the “cleaved RNA product abundance” value came to 0.374.

Turning to “CGACATGTCCCGCTTCTTTCATTAATCCGTTAGAAACTGTTTTGCTATATACATTTACATTTTAAGAGGAGGAAT”, the “cleaved RNA product abundance” value was determined as 0.34.

For the sequence “CGACATGTCCCGCTTCTTTCATTAATCCGTTAGAAACTGTTTTGCTATATACATTTACCTTTTAAGAGGAGGAAT”, the “cleaved RNA product abundance” value was determined as 0.292.

Regarding “CGACATGTCCCGCTTCTTTCATTAATCCGTTAGAAACTGTTTTGCTATATACATTTACTTTTTAAGAGGAGGAAT”, the “cleaved RNA product abundance” value was determined as 0.331.

Consider “CGACATGTCCCGCTTCTTTCATTAATCCGTTAGAAACTGTTTTGCTATATACATTTATCTTTTAAGAGGAGGAAT”, for which the “cleaved RNA product abundance” value was 0.384.

As to “CGACATGTCCCGCTTCTTTCATTAATCCGTTAGAAACTGTTTTGCTATATACTTTTACCTTTTAAGAGGAGGAAT”, the “cleaved RNA product abundance” value came to 0.217.

For “CGACATGTCCCGCTTCTTTCATTAATCCGTTAGAAACTGTTTTGCTATATATATTTACCTTTTAAGAGGAGGAAT”, the “cleaved RNA product abundance” value was determined as 0.272.

Consider “CGACATGTCCCGCTTCTTTCATTAATCCGTTAGAAACTGTTTTGCTATATTCATTTACCTTTTAAGAGGAGGAAT”, for which the “cleaved RNA product abundance” value came out at 0.268.

In the case of “CGACATGTCCCGCTTCTTTCATTAATCCGTTAGAAACTGTTTTGCTATTTACATTTACCTTTTAAGAGGAGGAAT”, the “cleaved RNA product abundance” value worked out at 0.127.

As to “CGACATGTCCCGCTTCTTTCATTAATCCGTTAGAAACTGTTTTGCTGTATACATTCATCTTTTAAGAGGAGGAAT”, the “cleaved RNA product abundance” value amounted to 0.0887.

On to “CGACATGTCCCGCTTCTTTCATTAATCCGTTAGAAACTGTTTTGCTGTATACATTTACCTTTTAAGAGGAGGAAT”, for which the “cleaved RNA product abundance” value was found to be 0.085.

For “CGACATGTCCCGCTTCTTTCATTAATCCGTTAGAAACTGTTTTGGTATATACATTTACCTTTTAAGAGGAGGAAT”, the “cleaved RNA product abundance” value was 0.104.

Turning to “CGACATGTCCCGCTTCTTTCATTAATCCGTTAGAAACTGTTTTTCTATATACATTTACCTTTTAAGAGGAGGAAT”, the “cleaved RNA product abundance” value is 0.511.

With “CGACATGTCCCGCTTCTTTCATTAATCCGTTAGAAACTTTTTTGCTATATACATTTACCTTTTAAGAGGAGGAAT”, the “cleaved RNA product abundance” value worked out at 0.287.

Take “CGACATGTCCCGCTTCTTTCATTAATCCGTTAGAAAGTGTTTTGCTATATACATTTACCTTTTAAGAGGAGGAAT”: the “cleaved RNA product abundance” value was 0.368.

Turning to “CGACATGTCCCGCTTCTTTCATTAATCCGTTAGAAATTGTTTTGCTATATACATTTACCTTTTAAGAGGAGGAAT”, the “cleaved RNA product abundance” value came to 0.342.

For “CGACATGTCCCGCTTCTTTCATTAATCCGTTAGAACCTGTTTTGCTATATACATTTACCTTTTAAGAGGAGGAAT”, the “cleaved RNA product abundance” value is 0.229.

For “CGACATGTCCCGCTTCTTTCATTAATCCGTTAGAAGCTGTTTTGCTATATACATTTACCTTTTAAGAGGAGGAAT”, the “cleaved RNA product abundance” value was determined as 0.23.

In the case of “CGACATGTCCCGCTTCTTTCATTAATCCGTTAGAATCTGTTTTGCTATATACATTTACCTTTTAAGAGGAGGAAT”, the “cleaved RNA product abundance” value was 0.239.

In the case of “CGACATGTCCCGCTTCTTTCATTAATCCGTTAGATACTGTTTTGCTATATACATTTACCTTTTAAGAGGAGGAAT”, the “cleaved RNA product abundance” value amounted to 0.273.

Turning to “CGACATGTCCCGCTTCTTTCATTAATCCGTTAGCAAATATTTTGCTATATACATTTACCTTTTAAGAGGAGGAAT”, the “cleaved RNA product abundance” value is 0.843.

Turning to “CGACATGTCCCGCTTCTTTCATTAATCCGTTAGCAAATGATTTGCTATATACATTTACCTTTTAAGAGGAGGAAT”, the “cleaved RNA product abundance” value is 1.28.

Regarding “CGACATGTCCCGCTTCTTTCATTAATCCGTTAGCAAATGGTTTGCTATATACATTTACCTTTTAAGAGGAGGAAT”, the “cleaved RNA product abundance” value worked out at 0.732.

In the case of “CGACATGTCCCGCTTCTTTCATTAATCCGTTAGCAAATGTTATGCTATATACATTTACCTTTTAAGAGGAGGAAT”, the “cleaved RNA product abundance” value stood at 0.766.

Turning to “CGACATGTCCCGCTTCTTTCATTAATCCGTTAGCAAATGTTTAGCTATATACATTTACCTTTTAAGAGGAGGAAT”, the “cleaved RNA product abundance” value turned out to be 0.503.

As for “CGACATGTCCCGCTTCTTTCATTAATCCGTTAGCAAATGTTTGGCTATATACATTTACCTTTTAAGAGGAGGAAT”, the “cleaved RNA product abundance” value is 0.43.

As to “CGACATGTCCCGCTTCTTTCATTAATCCGTTAGCAAATGTTTTACTATATACATTTACCTTTTAAGAGGAGGAAT”, the “cleaved RNA product abundance” value amounted to 0.73.

Regarding “CGACATGTCCCGCTTCTTTCATTAATCCGTTAGCAAATGTTTTCCTATATACACTTACCTTTTAAGAGGAGGAAT”, the “cleaved RNA product abundance” value worked out at 0.377.

As for “CGACATGTCCCGCTTCTTTCATTAATCCGTTAGCAAATGTTTTGATATATACATTTACCTTTTAAGAGGAGGAAT”, the “cleaved RNA product abundance” value stood at 0.418.

Turning to “CGACATGTCCCGCTTCTTTCATTAATCCGTTAGCAAATGTTTTGCAATATACATTTACCTTTTAAGAGGAGGAAT”, the “cleaved RNA product abundance” value was found to be 0.304.

Consider “CGACATGTCCCGCTTCTTTCATTAATCCGTTAGCAAATGTTTTGCTACATACATTTACCTTTTAAGAGGAGGAAT”, for which the “cleaved RNA product abundance” value is 0.354.

For the sequence “CGACATGTCCCGCTTCTTTCATTAATCCGTTAGCAAATGTTTTGCTATAAACATTTACCTTTTAAGAGGAGGAAT”, the “cleaved RNA product abundance” value amounted to 0.584.

Take “CGACATGTCCCGCTTCTTTCATTAATCCGTTAGCAAATGTTTTGCTATACACATTTACCTTTTAAGAGGAGGAAT”: the “cleaved RNA product abundance” value came out at 0.444.

For “CGACATGTCCCGCTTCTTTCATTAATCCGTTAGCAAATGTTTTGCTATATAAATTTACCTTTTAAGAGGAGGAAT”, the “cleaved RNA product abundance” value was determined as 0.499.

“CGACATGTCCCGCTTCTTTCATTAATCCGTTAGCAAATGTTTTGCTATATACAATTACCTTTTAAGAGGAGGAAT”: the “cleaved RNA product abundance” value came to 1.76.

For “CGACATGTCCCGCTTCTTTCATTAATCCGTTAGCAAATGTTTTGCTATATACATTAACCTTTTAAGAGGAGGAAT”, the “cleaved RNA product abundance” value worked out at 1.13.

As for “CGACATGTCCCGCTTCTTTCATTAATCCGTTAGCAAATGTTTTGCTATATACATTCACCTTTTAAGAGGAGGAAT”, the “cleaved RNA product abundance” value came out at 1.09.

For “CGACATGTCCCGCTTCTTTCATTAATCCGTTAGCAAATGTTTTGCTATATACATTTAAATTTTAAGAGGAGGAAT”, the “cleaved RNA product abundance” value is 0.806.

Consider “CGACATGTCCCGCTTCTTTCATTAATCCGTTAGCAAATGTTTTGCTATATACATTTAACTTTTAAGAGGAGGAAT”, for which the “cleaved RNA product abundance” value amounted to 1.03.

For “CGACATGTCCCGCTTCTTTCATTAATCCGTTAGCAAATGTTTTGCTATATACATTTACATTTTAAGAGGAGGAAT”, the “cleaved RNA product abundance” value stood at 1.23.

Regarding “CGACATGTCCCGCTTCTTTCATTAATCCGTTAGCAAATGTTTTGCTATATACATTTACCATTTAAGAGGAGGAAT”, the “cleaved RNA product abundance” value stood at 1.4.

As to “CGACATGTCCCGCTTCTTTCATTAATCCGTTAGCAAATGTTTTGCTATATACATTTACCCTTTAAGAGGAGGAAT”, the “cleaved RNA product abundance” value turned out to be 0.852.

For “CGACATGTCCCGCTTCTTTCATTAATCCGTTAGCAAATGTTTTGCTATATACATTTACCTTTTAAGAGGAGGAAT”, the “cleaved RNA product abundance” value worked out at 1.17.
